# Reference: patent US20060241051A1 (Takeda / Millennium, published 2006)
# Read-outs that look alike come from different tables or passages of the source. Square brackets hold non-standard residues; d marks the D form. Ends that are not written are not given here. * marks the point of attachment. 2‑(indol-3-yl)ethylcarbamoyl = O=C(NCCc1c[nH]c2ccccc12)*; Cyclohexanecarbonyl = O=C(C1CCCCC1)*; Arg(Me) = CNC(=N)NCCC[C@H](N)C(=O)O; d3Pal = N[C@H](Cc1cccnc1)C(=O)O; Cha = N[C@@H](CC1CCCCC1)C(=O)O; amidino = N=C(N)*; azaGly = NNC(=O)O
# What was measured:
# [1] = biological target: T1, human OT7T175 (metastin receptor) (human, UniProt Q969F8 1-398); assay: cell-based or functional assay
# T1 sequence (Q969F8 whole entry L364H): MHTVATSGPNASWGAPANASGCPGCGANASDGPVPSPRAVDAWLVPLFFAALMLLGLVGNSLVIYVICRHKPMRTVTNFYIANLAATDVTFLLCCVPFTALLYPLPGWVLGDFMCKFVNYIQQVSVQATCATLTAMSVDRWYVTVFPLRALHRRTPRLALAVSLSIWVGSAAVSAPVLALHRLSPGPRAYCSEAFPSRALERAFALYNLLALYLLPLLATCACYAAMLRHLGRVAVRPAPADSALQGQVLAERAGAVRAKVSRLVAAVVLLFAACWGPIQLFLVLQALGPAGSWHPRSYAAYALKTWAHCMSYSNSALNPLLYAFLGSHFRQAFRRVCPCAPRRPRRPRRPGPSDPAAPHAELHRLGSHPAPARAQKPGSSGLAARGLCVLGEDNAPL
# [2] = biological target: T1, human OT7T175 (metastin receptor); assay: FMAT competition with Cy-5-labeled metastin (40-54), hOT7T175-expressed CHO cells
# Description: h0T7T175-Expressed CHO cells were cultured in MEM-α medium (nucleic acid-free) containing 10% dialyzed serum. The medium was removed and the adherent cells were washed with PBS. Then, PBS containing 5 mM EDTA was added and the cells were scraped from a flask with a cell scraper. […] To each well of a 96-Well Black Clear Bottom Plate (Applied Biosystems, Inc.), 10 μL of assay buffer containing 1% dimethylsulfoxide was added to examine total binding, 10 μL of 10 μM non-labeled peptide (having the same amino acid sequence as that of the labeled one) solution diluted with assay buffer to examine non-specific binding, and 10 μL of a test compound diluted with assay buffer to examine the binding inhibition activity of the test compound, respectively. Furthermore, 90 μL each of the cell suspension was dispensed to each well. […] The specific binding is a value obtained by subtracting the non-specific binding from the total binding.
# [3] = biological target: T1, human OT7T175 (metastin receptor); assay: cell-based or functional assay; remark: listed apart in the source
Binder,intracellular Ca ion level-increasing activity (FLIPR) [1],IC50 [2] [nM],intracellular Ca ion level-increasing activity (FLIPR) [3]
"{2‑(indol-3-yl)ethylcarbamoyl}-NSF[azaGly]L[Arg(Me)]F-NH2 (SMILES CNC(=N)NCCC[C@H](NC(=O)[C@H](CC(C)C)NC(=O)NNC(=O)[C@H](Cc1ccccc1)NC(=O)[C@H](CO)NC(=O)[C@H](CC(N)=O)NC(=O)NCCc1c[nH]c2ccccc12)C(=O)N[C@@H](Cc1ccccc1)C(N)=O) [Compound No. 279: des(1-3)-2-(Indol-3-yl)ethylcarbamoyl-[AzaGly7,Arg(Me)9]MS10]",5 specific activity to metastin (1-54),29,–
"[dY]NWNSFAL[Arg(Me)]F-NH2 (N-terminus assumed; SMILES CNC(=N)NCCC[C@H](NC(=O)[C@H](CC(C)C)NC(=O)[C@H](C)NC(=O)[C@H](Cc1ccccc1)NC(=O)[C@H](CO)NC(=O)[C@H](CC(N)=O)NC(=O)[C@H](Cc1c[nH]c2ccccc12)NC(=O)[C@H](CC(N)=O)NC(=O)[C@H](N)Cc1ccc(O)cc1)C(=O)N[C@@H](Cc1ccccc1)C(N)=O, printed structure is the same as that of Compound No. 173) [Compound No. 204: [D-Tyr1, Ala7, Arg(Me)9]MS10]",–,680,5 specific activity to metastin (1-54)
"[dY]NWTSFGL[Arg(Me)]F-NH2 [Compound No. 208: [D-Tyr1,Thr4,Arg(Me)9]MS10]",–,830,1 specific activity to metastin (1-54)
"[dY]NTNSFGL[Arg(Me)]F-NH2 (N-terminus assumed; SMILES CNC(=N)NCCC[C@H](NC(=O)[C@H](CC(C)C)NC(=O)CNC(=O)[C@H](Cc1ccccc1)NC(=O)[C@H](CO)NC(=O)[C@H](CC(N)=O)NC(=O)[C@@H](NC(=O)[C@H](CC(N)=O)NC(=O)[C@H](N)Cc1ccc(O)cc1)[C@@H](C)O)C(=O)N[C@@H](Cc1ccccc1)C(N)=O) [Compound No. 205: [D-Tyr1,Thr3,Arg(Me)9]MS10]",–,260,10 specific activity to metastin (1-54)
"[dY]NVNSFGL[Arg(Me)]F-NH2 (N-terminus assumed; SMILES CNC(=N)NCCC[C@H](NC(=O)[C@H](CC(C)C)NC(=O)CNC(=O)[C@H](Cc1ccccc1)NC(=O)[C@H](CO)NC(=O)[C@H](CC(N)=O)NC(=O)[C@@H](NC(=O)[C@H](CC(N)=O)NC(=O)[C@H](N)Cc1ccc(O)cc1)C(C)C)C(=O)N[C@@H](Cc1ccccc1)C(N)=O) [Compound No. 229: [D-Tyr1,Val3,Arg(Me)9]MS10]",–,130,1 specific activity to metastin (1-54)
"[dY]NWASFGL[Arg(Me)]F-NH2 (N-terminus assumed; SMILES CNC(=N)NCCC[C@H](NC(=O)[C@H](CC(C)C)NC(=O)CNC(=O)[C@H](Cc1ccccc1)NC(=O)[C@H](CO)NC(=O)[C@H](C)NC(=O)[C@H](Cc1c[nH]c2ccccc12)NC(=O)[C@H](CC(N)=O)NC(=O)[C@H](N)Cc1ccc(O)cc1)C(=O)N[C@@H](Cc1ccccc1)C(N)=O) [Compound No. 210: [D-Tyr1,Ala4,Arg(Me)9]MS10]",–,730,1 specific activity to metastin (1-54)
"[dY]NWNTFGL[Arg(Me)]F-NH2 (N-terminus assumed; SMILES CNC(=N)NCCC[C@H](NC(=O)[C@H](CC(C)C)NC(=O)CNC(=O)[C@H](Cc1ccccc1)NC(=O)[C@@H](NC(=O)[C@H](CC(N)=O)NC(=O)[C@H](Cc1c[nH]c2ccccc12)NC(=O)[C@H](CC(N)=O)NC(=O)[C@H](N)Cc1ccc(O)cc1)[C@@H](C)O)C(=O)N[C@@H](Cc1ccccc1)C(N)=O) [Compound No. 211: [D-Tyr1,Thr5,Arg(Me)9]MS10]",–,44,10 specific activity to metastin (1-54)
"[dY]QWNSFGL[Arg(Me)]F-NH2 (N-terminus assumed; SMILES CNC(=N)NCCC[C@H](NC(=O)[C@H](CC(C)C)NC(=O)CNC(=O)[C@H](Cc1ccccc1)NC(=O)[C@H](CO)NC(=O)[C@H](CC(N)=O)NC(=O)[C@H](Cc1c[nH]c2ccccc12)NC(=O)[C@H](CCC(N)=O)NC(=O)[C@H](N)Cc1ccc(O)cc1)C(=O)N[C@@H](Cc1ccccc1)C(N)=O) [Compound No. 214: [D-Tyr1,Gln2,Arg(Me)9]MS10]",–,390,10 specific activity to metastin (1-54)
"[dY]NWNAFGL[Arg(Me)]F-NH2 (N-terminus assumed; SMILES CNC(=N)NCCC[C@H](NC(=O)[C@H](CC(C)C)NC(=O)CNC(=O)[C@H](Cc1ccccc1)NC(=O)[C@H](C)NC(=O)[C@H](CC(N)=O)NC(=O)[C@H](Cc1c[nH]c2ccccc12)NC(=O)[C@H](CC(N)=O)NC(=O)[C@H](N)Cc1ccc(O)cc1)C(=O)N[C@@H](Cc1ccccc1)C(N)=O) [Compound No. 212: [D-Tyr1,Ala5,Arg(Me)9]MS10]",–,36,10 specific activity to metastin (1-54)
"[dY]TWNSFGL[Arg(Me)]F-NH2 (N-terminus assumed; SMILES CNC(=N)NCCC[C@H](NC(=O)[C@H](CC(C)C)NC(=O)CNC(=O)[C@H](Cc1ccccc1)NC(=O)[C@H](CO)NC(=O)[C@H](CC(N)=O)NC(=O)[C@H](Cc1c[nH]c2ccccc12)NC(=O)[C@@H](NC(=O)[C@H](N)Cc1ccc(O)cc1)[C@@H](C)O)C(=O)N[C@@H](Cc1ccccc1)C(N)=O) [Compound No. 215: [D-Tyr1,Thr2,Arg(Me)9]MS10]",–,250,10 specific activity to metastin (1-54)
"[dY]NWNSFGV[Arg(Me)]F-NH2 [Compound No. 213: [D-Tyr1,Val8,Arg(Me)9]MS10]",–,190,2 specific activity to metastin (1-54)
"[dY]NINSFGL[Arg(Me)]F-NH2 (N-terminus assumed; SMILES CC[C@H](C)[C@H](NC(=O)[C@H](CC(N)=O)NC(=O)[C@H](N)Cc1ccc(O)cc1)C(=O)N[C@@H](CC(N)=O)C(=O)N[C@@H](CO)C(=O)N[C@@H](Cc1ccccc1)C(=O)NCC(=O)N[C@@H](CC(C)C)C(=O)N[C@@H](CCCNC(=N)NC)C(=O)N[C@@H](Cc1ccccc1)C(N)=O) [Compound No. 206: [D-Tyr1,Ile3,Arg(Me)9]MS10]",–,85,10 specific activity to metastin (1-54)
"Ac-WNSF[azaGly]L[Arg(Me)]F-NH2 (SMILES CNC(=N)NCCC[C@H](NC(=O)[C@H](CC(C)C)NC(=O)NNC(=O)[C@H](Cc1ccccc1)NC(=O)[C@H](CO)NC(=O)[C@H](CC(N)=O)NC(=O)[C@H](Cc1c[nH]c2ccccc12)NC(C)=O)C(=O)N[C@@H](Cc1ccccc1)C(N)=O) [Compound No. 272: des(1-2)-Acetyl-[AzaGly7,Arg(Me)9]MS10]",2 specific activity to metastin (1-54),540,–
"[dY][dW]NSF[azaGly]L[Arg(Me)]F-NH2 [Compound No. 242: des(1)-[D-Tyr2,D-Trp3,AzaGly7,Arg(Me)9]MS10]",–,70,2 specific activity to metastin (1-54)
"Cyclohexanecarbonyl-NSF[azaGly]L[Arg(Me)]F-NH2 (SMILES CNC(=N)NCCC[C@H](NC(=O)[C@H](CC(C)C)NC(=O)NNC(=O)[C@H](Cc1ccccc1)NC(=O)[C@H](CO)NC(=O)[C@H](CC(N)=O)NC(=O)C1CCCCC1)C(=O)N[C@@H](Cc1ccccc1)C(N)=O) [Compound No. 278: des(1-3)-Cyclohexanecarbonyl-[AzaGly7, Arg(Me)9]MS10]",2 specific activity to metastin (1-54),110,–
"[d3Pal][dN][Cha]NSF[azaGly]L[Arg(Me)]F-NH2 (N-terminus assumed; SMILES CNC(=N)NCCC[C@H](NC(=O)[C@H](CC(C)C)NC(=O)NNC(=O)[C@H](Cc1ccccc1)NC(=O)[C@H](CO)NC(=O)[C@H](CC(N)=O)NC(=O)[C@H](CC1CCCCC1)NC(=O)[C@@H](CC(N)=O)NC(=O)[C@H](N)Cc1cccnc1)C(=O)N[C@@H](Cc1ccccc1)C(N)=O) [Compound No. 290: [D-Pya(3)1,D-Asn2,Cha3,AzaGly7,Arg(Me)9]MS10]",1 specific activity to metastin (1-54),1.4,–
"WNSF[azaGly]L[Arg(Me)]F-NH2 (N-terminus assumed; SMILES CNC(=N)NCCC[C@H](NC(=O)[C@H](CC(C)C)NC(=O)NNC(=O)[C@H](Cc1ccccc1)NC(=O)[C@H](CO)NC(=O)[C@H](CC(N)=O)NC(=O)[C@@H](N)Cc1c[nH]c2ccccc12)C(=O)N[C@@H](Cc1ccccc1)C(N)=O) [Compound No. 271: des(1-2)-[AzaGly7,Arg(Me)9]MS10]",1 specific activity to metastin (1-54),120,–
"amidino-WNSF[azaGly]L[Arg(Me)]F-NH2 (SMILES CNC(=N)NCCC[C@H](NC(=O)[C@H](CC(C)C)NC(=O)NNC(=O)[C@H](Cc1ccccc1)NC(=O)[C@H](CO)NC(=O)[C@H](CC(N)=O)NC(=O)[C@H](Cc1c[nH]c2ccccc12)NC(=N)N)C(=O)N[C@@H](Cc1ccccc1)C(N)=O) [Compound No. 273: des(1-2)-Amidino-[AzaGly7,Arg(Me)9]MS10]",5 specific activity to metastin (1-54),300,–
"YNWNSXGLRF (D-Tyr1; Pya(2)6; Arg(Me)9; C-terminal amide) [Compound No. 281: [D-Tyr1,Pya(2)6,Arg(Me)9]MS10]",0.5 specific activity to metastin (1-54),230,–
"{n‑Hexanoyl}-NSF[azaGly]L[Arg(Me)]F-NH2 [Compound No. 277: des(1-3)-n-Hexanoyl-[AzaGly7,Arg(Me)9]MS10]",2 specific activity to metastin (1-54),54,–
